Test results taken from article PMC10130221.

Legend:
Assay in all cases: filter binding
[1] = test system: TrmB WT (Escherichia coli); details: none (in vitro transcribed), becomes m7G46 during incubation with SAM, TAKEM4: 50 mM Tris-HCl pH 7.5, 70 mM NH4Cl, 30 mM KCl, 1 mM EDTA, 4 mM MgCl2, filter binding 20 nM tRNA, 10 min (temperature not given in the material) …
[2] = test system: TrmB T217A (Escherichia coli); details: none (in vitro transcribed), becomes m7G46 during incubation with SAM, TAKEM4: 50 mM Tris-HCl pH 7.5, 70 mM NH4Cl, 30 mM KCl, 1 mM EDTA, 4 mM MgCl2, filter binding 20 nM tRNA, 10 min (temperature not given in the material) …
[3] = test system: TrmB D144A (Escherichia coli); details: none (in vitro transcribed), becomes m7G46 during incubation with SAM, TAKEM4: 50 mM Tris-HCl pH 7.5, 70 mM NH4Cl, 30 mM KCl, 1 mM EDTA, 4 mM MgCl2, filter binding 20 nM tRNA, 10 min (temperature not given in the material) …
[4] = test system: TrmB R155A (Escherichia coli); details: max. about 30% bound, none (in vitro transcribed), becomes m7G46 during incubation with SAM, TAKEM4: 50 mM Tris-HCl pH 7.5, 70 mM NH4Cl, 30 mM KCl, 1 mM EDTA, 4 mM MgCl2, filter binding 20 nM tRNA, 10 min (temperature not given in the material) …
[5] = test system: TrmB R26A (Escherichia coli); details: none (in vitro transcribed), becomes m7G46 during incubation with SAM, TAKEM4: 50 mM Tris-HCl pH 7.5, 70 mM NH4Cl, 30 mM KCl, 1 mM EDTA, 4 mM MgCl2, filter binding 20 nM tRNA, 10 min (temperature not given in the material) …

How did the Kd ([1]; 50 uM SAM, tRNA becomes m7G46 product in 10 min) turn out when [3H]tRNAPhe (unmodified transcript) was run?
Its Kd is 2.1 µM.

What about the Kd ([1]; no SAM) of the same substance?
The Kd was 6.6 µM.

What about the Kd ([2]; 50 uM SAM) of the same substance?
Its Kd is 2.6 µM.

What about the Kd ([2]; no SAM) of the same substance?
Its Kd is 5.4 µM.

And the Kd ([3]; 50 uM SAM)?
The Kd was 800 nM.

What about the Kd ([3]; no SAM) of the same substance?
Its Kd is 2500 nM.

And the Kd ([4]; 50 uM SAM)?
The Kd was 5.8 µM.

And the Kd ([4]; no SAM)?
The Kd was 10 µM.

What about the Kd ([5]; 50 uM SAM) of the same substance?
Its Kd is 5.1 µM.

And the Kd ([5]; no SAM, max. about 20% bound)?
The Kd was 6.4 µM.
